Laboratory results as given in patent US20180312587A1 (ADURO BIOTECH HOLDINGS EUROPE B V, published 2018).
One block for each binder: values may come before it.

Key:
human SIRPα variant 1 = target: T1, human SIRPα variant 1 (human, UniProt P78324 31-504); assay: flow cytometry, blockade of DyLight488-hCD47/Fc binding to U-937 cells
T1 construct: full length ORF on transfected CHO-K1 or HEK293 cells; entry includes the signal peptide; also called hSIRPαV1; SIRPαV1
Experimental: hCD47 blockade was assessed by flow cytometry for the full panel of humanized hSIRPα.40A antibodies. To this end, the U-937 (ATCC CRL-1593.2) monocyte cell line was used as the source of hSIRPα in the assay. U-937 cells were seeded in 96-well round bottomed tissue culture plates and incubated for 45 minutes with FcR Blocking Reagent (Miltenyi Biotec) and the parental or humanized hSIRPα.40A antibody variants (20 μg/mL and dilutions thereof) in PBS/1% BSA at 4° C. […] After this labeling procedure, cells were washed two times, resuspended in PBS/1% BSA containing 0.1 μg/mL DAPI (BioLegend), and analysed by flow cytometry on the FACSVerse (BD Biosciences). Data were processed and analysed with FlowJo V10 software (FlowJo, LLC) and plotted using GraphPad Prism 6 (GraphPad Software, Inc.).
As depicted in FIG. 18 and the following Table 21, binding of recombinant hCD47 fused to an Fc domain of human IgG1 was monitored in the presence of increasing amounts of the humanized hSIRPα.40A antibody variants. Humanized hSIRPα.40A blocked the hSIRPα/hCD47 interaction, using the flow cytometry-based method described above. […] IC50 values represent the concentration at which half of the inhibition is observed.

[1] = target: T2, hSIRPα expressed on primary human cells (human, UniProt P78324 31-504); assay: flow cytometry, primary CD14+ enriched monocytes, donor 1
T2 construct: whole, on cells; also called hSIRPα on primary human CD14+ monocytes; on primary human granulocytes
T2 sequence (P78324 31-504): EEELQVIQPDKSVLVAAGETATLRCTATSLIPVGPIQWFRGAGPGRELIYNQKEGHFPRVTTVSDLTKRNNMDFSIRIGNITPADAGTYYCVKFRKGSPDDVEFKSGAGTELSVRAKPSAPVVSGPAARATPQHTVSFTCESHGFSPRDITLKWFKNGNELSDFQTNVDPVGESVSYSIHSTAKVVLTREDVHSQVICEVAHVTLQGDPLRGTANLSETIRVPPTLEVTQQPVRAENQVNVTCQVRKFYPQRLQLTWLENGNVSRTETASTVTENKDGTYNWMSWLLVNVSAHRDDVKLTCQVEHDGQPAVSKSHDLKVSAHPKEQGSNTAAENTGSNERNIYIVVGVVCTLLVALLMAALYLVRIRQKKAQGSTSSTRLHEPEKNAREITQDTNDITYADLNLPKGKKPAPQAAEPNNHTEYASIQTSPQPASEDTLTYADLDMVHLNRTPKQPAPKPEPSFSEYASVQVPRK
Experimental: (§1) Next, the binding of hSIRPα.50A to hSIRPα expressed on primary human CD14⁺ monocytes was investigated. In addition, the ability of hSIRPα.50A to block the interaction between hSIRPα and recombinant hCD47/Fc-protein was assessed. For this purpose, CD14+ monocytes were isolated from Ficoll-purified human peripheral blood mononuclear cells (PBMCs) using RosetteSep human monocyte enrichment cocktail (Stemcell). The percentage of monocytes present after the enrichment was determined by flow cytometry on the FACSVerse (BD Biosciences) based on CD14 staining using an APC-Cy7-conjugated mouse-anti-human CD14 detection antibody (BD Biosciences). […] After this labeling procedure, cells were washed two times, resuspended in PBS/1% BSA containing 0.1 μg/mL DAPI (BioLegend), and analysed by flow cytometry on the FACSVerse (BD Biosciences). Data were processed and analysed with FlowJo V10 software (FlowJo, LLC).
To assess the blocking ability of hSIRPα.50A, CD14+ enriched monocytes cells were seeded in 96-well round bottomed tissue culture plates and incubated for 45 minutes with FcR Blocking Reagent (Miltenyi Biotec) and hSIRPα.50A antibody (200 μg/mL and dilutions thereof) in PBS/1% BSA at 4° C. […] After this labeling procedure, cells were washed two times, resuspended in PBS/1% BSA containing 0.1 μg/mL DAPI (BioLegend), and analysed by flow cytometry on the FACSVerse (BD Biosciences). […]

[2] = target: T2, hSIRPα expressed on primary human cells; assay: flow cytometry, blockade of DyLight488-hCD47/Fc binding to CD14+ enriched monocytes, donor 1
Experimental: as §1, with “In” for “Next, the binding of hSIRPα.50A to hSIRPα expressed on primary human CD14⁺ monocytes was investigated. In”
To assess the blocking ability of hSIRPα.50A, CD14+ enriched monocytes cells were seeded in 96-well round bottomed tissue culture plates and incubated for 45 minutes with FcR Blocking Reagent (Miltenyi Biotec) and hSIRPα.50A antibody (200 μg/mL and dilutions thereof) in PBS/1% BSA at 4° C. […] After this labeling procedure, cells were washed two times, resuspended in PBS/1% BSA containing 0.1 μg/mL DAPI (BioLegend), and analysed by flow cytometry on the FACSVerse (BD Biosciences). Data were processed and analysed with FlowJo V10 software (FlowJo, LLC).

human SIRPβ1 = target: T3, human SIRPβ1 (human, UniProt O00241 30-398); assay: CELISA, CHO-K1 transfectants
T3 construct: also called hSIRPβ1
T3 sequence (O00241 30-398 limits assumed): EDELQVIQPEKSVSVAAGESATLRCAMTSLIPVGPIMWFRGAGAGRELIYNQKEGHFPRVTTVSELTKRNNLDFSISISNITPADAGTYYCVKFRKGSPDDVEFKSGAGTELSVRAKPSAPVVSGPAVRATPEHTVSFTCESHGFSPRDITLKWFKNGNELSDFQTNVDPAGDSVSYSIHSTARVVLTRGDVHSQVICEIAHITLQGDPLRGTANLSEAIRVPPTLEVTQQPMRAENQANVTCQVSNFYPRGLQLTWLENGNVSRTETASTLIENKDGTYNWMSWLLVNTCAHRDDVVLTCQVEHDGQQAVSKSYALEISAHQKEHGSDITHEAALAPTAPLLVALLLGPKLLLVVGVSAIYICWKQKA
Experimental: (§2) Reactivity was confirmed using CHO-K1 cells (ATCC CCL-61) expressing a cDNA encoding the full length open reading frame of hSIRPαV1, hSIRPαV1(P74A), hSIRPαV2, and hSIRPβ1 subcloned into the pCI-neo vector (Promega, Madison, Wis.). CHO-K1.hSIRPαV1, CHO-K1.hSIRPαV1(P74A), CHO-K1.hSIRPαV2, and CHO-K1.hSIRPβ1 cells were seeded in culture medium (DMEM-F12 (Gibco) supplemented with 5% New Born Calf Serum (BioWest) and Pen/Strep (Gibco)) in 96-well flat-bottom tissue culture plates and incubated at 37° C., 5% CO₂ and 95% humidity for 24 hours. Subsequently, culture medium was removed and cells were incubated for 1 hour at 37° C., 5% CO₂ and 95% humidity with purified hSIRPα antibodies (used at 10 μg/mL and dilutions thereof). Next, cells were washed with PBS-T and incubated for 1 hour at 37° C., 5% CO₂ and 95% humidity with goat-anti-mouse IgG-HRP (Southern Biotech). Subsequently, cells were washed three times with PBS-T and immunoreactivity against hSIRPαV1, hSIRPαV1(P74A), hSIRPαV2, and hSIRPβ1 was visualized with TMB Stabilized Chromogen (Invitrogen). Reactions were stopped with 0.5 M H₂SO₄ and absorbances were read at 450 and 610 nm.

hSIRPαV1(P74A) = target: T4, hSIRPαV1(P74A) (human, UniProt P78324 31-504); assay: CELISA, CHO-K1 transfectants
T4 construct: also called P74A variant of hSIRPαV1
Experimental: as §2

IC50 (human SIRPα variant 1): 1.12 nM
B1: hSIRPα.40A (antibody, mouse IgG1, kappa, V domains shown)
VH: EVQFQQSGTVLARPGTSVKMSCKASGSTFTSYWMHWVKQGPGQGLQWIGAIYPVNNDTTYNQKFKGKAELTVVTSTSTAYMEVSSLTNEDSAVYYCTRSFYYSLDAAWFVYWGQGTLVTVSA
VL: DIQMTQSPSSLSASLGERVSLTCRASQDIGSRLNWLQQEPDGTIKRLIYATSSLDSGVPKRFSGSRSGSDYSLTISGLESEDFVDYYCLQYASSPFTFGGGTKLEINR
notes: mouse antibody, full chains without signal peptide; also called mouse hSIRPα.40A

EC50 [1]: 7.38 nM
IC50 [2]: 4.62 nM
B2: hSIRPα.50A (antibody, V domains shown)
VH: QVQLQQSGPELVKPGASVRISCKASGFTFTNYYIHWVKQRPGQGLEWIGWIYPGNVNTKYNEKFKAKATLTADKSSTTAYMQLSSLASEDSAVYFCARPTIIATDFDVWGAGTTVTVSS
VL: DIVMTQSHKFMSTSVGDRVNITCKASQGVGTAVGWYQQKPGQSPRLLIYWASTRHTGVPDRFTGSGSGTDFSLAISNVQSEDLADYFCQQYSTYPFTFGGGTNLEIK
notes: light chain constant domain not tied; also called mouse hSIRPα.50A; hSIRPα.50A.mIgG1

EC50 (human SIRPβ1): 0.033 nM
EC50 (hSIRPαV1(P74A)): 0.049 nM
B3: KWAR23 (antibody, V domains shown)
VH: EVQLQQSGAELVKPGASVKLSCTASGFNIKDYYIHWVQQRTEQGLEWIGRIDPEDGETKYAPKFQDKATITADTSSNTAYLHLSSLTSEDTAVYYCARWGAYWGQGTLVTVSS
VL: QIVLTQSPAIMSASPGEKVTLTCSASSSVSSSYLYWYQQKPGSSPKLWIYSTSNLASGVPARFSGSGSGTSYSLTISSMEAEDAASYFCHQWSSYPRTFGAGTKLELK
